According to the Human Domainome abundance scans (Beltran et al. 2025):
± gives the uncertainty stated by the source.

B1: Receptor-interacting serine/threonine-protein kinase 2, residues 438 to 518; numbered along this chain, O43353 (parent)
chain: QWIQSKREDIVNQMTEACLNQSLDALLSRDLIMKEDYELVSTKPTRTSKVRQLLDTTDIQGEEFAKVIVQKLKDNKQMGLQ

Variants of: B1
Test: abundance fitness (aPCA) (normalised: wild type 0, dead -1); higher = more abundant; growth selection in yeast, the domain comes from the species named
Conditions: Homo sapiens

Variant | abundance fitness
QWIQSKREDIVNQMTEACLNQSLDALLSRDLIMKEDYELVSTKKTRTSKVRQLLDTTDIQGEEFAKVIVQKLKDNKQMGLQ | -0.298 ± 0.16
QWIQSKREDIVNQMTEACLNQSLDALLSRDLIMKEDYELVSTKRTRTSKVRQLLDTTDIQGEEFAKVIVQKLKDNKQMGLQ | -0.265 ± 0.052
QWIQSKREDIVNQMTEACLNQSLDALLSRDLIMKEDYELVSTKQTRTSKVRQLLDTTDIQGEEFAKVIVQKLKDNKQMGLQ | -0.169 ± 0.11
QWIQSKREDIVNQMTEACLNQSLDALLSRDLIMKEDYELVSTKSTRTSKVRQLLDTTDIQGEEFAKVIVQKLKDNKQMGLQ | -0.304 ± 0.075
QWIQSKREDIVNQMTEACLNQSLDALLSRDLIMKEDYELVSTKGTRTSKVRQLLDTTDIQGEEFAKVIVQKLKDNKQMGLQ | -0.314 ± 0.064
QWIQSKREDIVNQMTEACLNQSLDALLSRDLIMKEDYELVSTKNTRTSKVRQLLDTTDIQGEEFAKVIVQKLKDNKQMGLQ | -0.196 ± 0.29
QWIQSKREDIVNQMTEACLNQSLDALLSRDLIMKEDYELVSTKLTRTSKVRQLLDTTDIQGEEFAKVIVQKLKDNKQMGLQ | -0.263 ± 0.067
QWIQSKREDIVNQMTEACLNQSLDALLSRDLIMKEDYELVSTKYTRTSKVRQLLDTTDIQGEEFAKVIVQKLKDNKQMGLQ | -0.2 ± 0.26
QWIQSKREDIVNQMTEACLNQSLDALLSRDLIMKEDYELVSTKWTRTSKVRQLLDTTDIQGEEFAKVIVQKLKDNKQMGLQ | -0.483 ± 0.1
QWIQSKREDIVNQMTEACLNQSLDALLSRDLIMKEDYELVSTKCTRTSKVRQLLDTTDIQGEEFAKVIVQKLKDNKQMGLQ | -0.491 ± 0.15
QWIQSKREDIVNQMTEACLNQSLDALLSRDLIMKEDYELVSTKVTRTSKVRQLLDTTDIQGEEFAKVIVQKLKDNKQMGLQ | -0.214 ± 0.071
QWIQSKREDIVNQMTEACLNQSLDALLSRDLIMKEDYELVSTKETRTSKVRQLLDTTDIQGEEFAKVIVQKLKDNKQMGLQ | -0.141 ± 0.1
QWIQSKREDIVNQMTEACLNQSLDALLSRDLIMKEDYELVSTKTTRTSKVRQLLDTTDIQGEEFAKVIVQKLKDNKQMGLQ | -0.283 ± 0.1
QWIQSKREDIVNQMTEACLNQSLDALLSRDLIMKEDYELVSTKATRTSKVRQLLDTTDIQGEEFAKVIVQKLKDNKQMGLQ | -0.181 ± 0.079
QWIQSKREDIVNQMTEACLNQSLDALLSRDLIMKEDYELVSTKHTRTSKVRQLLDTTDIQGEEFAKVIVQKLKDNKQMGLQ | -0.761 ± 0.2
QWIQSKREDIVNQMTEACLNQSLDALLSRDLIMKEDYELVSYKPTRTSKVRQLLDTTDIQGEEFAKVIVQKLKDNKQMGLQ | -0.406 ± 0.15
QWIQSKREDIVNQMTEACLNQSLDALLSRDLIMKEDYELVSAKPTRTSKVRQLLDTTDIQGEEFAKVIVQKLKDNKQMGLQ | -0.069 ± 0.075
QWIQSKREDIVNQMTEACLNQSLDALLSRDLIMKEDYELVSMKPTRTSKVRQLLDTTDIQGEEFAKVIVQKLKDNKQMGLQ | 0.012 ± 0.1
QWIQSKREDIVNQMTEACLNQSLDALLSRDLIMKEDYELVSSKPTRTSKVRQLLDTTDIQGEEFAKVIVQKLKDNKQMGLQ | 0.022 ± 0.061
QWIQSKREDIVNQMTEACLNQSLDALLSRDLIMKEDYELVSQKPTRTSKVRQLLDTTDIQGEEFAKVIVQKLKDNKQMGLQ | 0.207 ± 0.13
QWIQSKREDIVNQMTEACLNQSLDALLSRDLIMKEDYELVSCKPTRTSKVRQLLDTTDIQGEEFAKVIVQKLKDNKQMGLQ | -0.108 ± 0.082
QWIQSKREDIVNQMTEACLNQSLDALLSRDLIMKEDYELVSKKPTRTSKVRQLLDTTDIQGEEFAKVIVQKLKDNKQMGLQ | -0.206 ± 0.42
QWIQSKREDIVNQMTEACLNQSLDALLSRDLIMKEDYELVSHKPTRTSKVRQLLDTTDIQGEEFAKVIVQKLKDNKQMGLQ | -0.156 ± 0.088

Variant | abundance fitness
QWIQSKREDIVNQMTEACLNQSLDALLSRDLIMKEDYELVSPKPTRTSKVRQLLDTTDIQGEEFAKVIVQKLKDNKQMGLQ | -0.89 ± 0.16
QWIQSKREDIVNQMTEACLNQSLDALLSRDLIMKEDYELVSVKPTRTSKVRQLLDTTDIQGEEFAKVIVQKLKDNKQMGLQ | -0.415 ± 0.061
QWIQSKREDIVNQMTEACLNQSLDALLSRDLIMKEDYELVSNKPTRTSKVRQLLDTTDIQGEEFAKVIVQKLKDNKQMGLQ | -0.115 ± 0.15
QWIQSKREDIVNQMTEACLNQSLDALLSRDLIMKEDYELVSFKPTRTSKVRQLLDTTDIQGEEFAKVIVQKLKDNKQMGLQ | -0.243 ± 0.086
QWIQSKREDIVNQMTEACLNQSLDALLSRDLIMKEDYELVSDKPTRTSKVRQLLDTTDIQGEEFAKVIVQKLKDNKQMGLQ | -0.318 ± 0.087
QWIQSKREDIVNQMTEACLNQSLDALLSRDLIMKEDYELVSIKPTRTSKVRQLLDTTDIQGEEFAKVIVQKLKDNKQMGLQ | -0.225 ± 0.16
QWIQSKREDIVNQMTEACLNQSLDALLSRDLIMKEDYELVSRKPTRTSKVRQLLDTTDIQGEEFAKVIVQKLKDNKQMGLQ | 0.066 ± 0.061
QWIQSKREDIVNQMTEACLNQSLDALLSRDLIMKEDYELVSLKPTRTSKVRQLLDTTDIQGEEFAKVIVQKLKDNKQMGLQ | -0.225 ± 0.073
QWIQSKREDIVNQMTEACLNQSLDALLSRDLIMKEDYELVSEKPTRTSKVRQLLDTTDIQGEEFAKVIVQKLKDNKQMGLQ | -0.158 ± 0.29
QWIQSKREDIVNQMTEACLNQSLDALLSRDLIMKEDYELVWTKPTRTSKVRQLLDTTDIQGEEFAKVIVQKLKDNKQMGLQ | -0.466 ± 0.1
QWIQSKREDIVNQMTEACLNQSLDALLSRDLIMKEDYELVQTKPTRTSKVRQLLDTTDIQGEEFAKVIVQKLKDNKQMGLQ | 0.139 ± 0.076
QWIQSKREDIVNQMTEACLNQSLDALLSRDLIMKEDYELVYTKPTRTSKVRQLLDTTDIQGEEFAKVIVQKLKDNKQMGLQ | -0.117 ± 0.11
QWIQSKREDIVNQMTEACLNQSLDALLSRDLIMKEDYELVRTKPTRTSKVRQLLDTTDIQGEEFAKVIVQKLKDNKQMGLQ | 0.046 ± 0.046
QWIQSKREDIVNQMTEACLNQSLDALLSRDLIMKEDYELVTTKPTRTSKVRQLLDTTDIQGEEFAKVIVQKLKDNKQMGLQ | -0.004 ± 0.079
QWIQSKREDIVNQMTEACLNQSLDALLSRDLIMKEDYELVVTKPTRTSKVRQLLDTTDIQGEEFAKVIVQKLKDNKQMGLQ | 0.11 ± 0.05
QWIQSKREDIVNQMTEACLNQSLDALLSRDLIMKEDYELVSTKPDRTSKVRQLLDTTDIQGEEFAKVIVQKLKDNKQMGLQ | 0.029 ± 0.14
QWIQSKREDIVNQMTEACLNQSLDALLSRDLIMKEDYELVSTKPCRTSKVRQLLDTTDIQGEEFAKVIVQKLKDNKQMGLQ | -0.308 ± 0.11
QWIQSKREDIVNQMTEACLNQSLDALLSRDLIMKEDYELVSTKPHRTSKVRQLLDTTDIQGEEFAKVIVQKLKDNKQMGLQ | -0.568 ± 0.22
QWIQSKREDIVNQMTEACLNQSLDALLSRDLIMKEDYELVSTKPLRTSKVRQLLDTTDIQGEEFAKVIVQKLKDNKQMGLQ | -0.696 ± 0.069
QWIQSKREDIVNQMTEACLNQSLDALLSRDLIMKEDYELVSTKPKRTSKVRQLLDTTDIQGEEFAKVIVQKLKDNKQMGLQ | -0.999 ± 0.24
QWIQSKREDIVNQMTEACLNQSLDALLSRDLIMKEDYELVSTKPERTSKVRQLLDTTDIQGEEFAKVIVQKLKDNKQMGLQ | -0.364 ± 0.25
QWIQSKREDIVNQMTEACLNQSLDALLSRDLIMKEDYELVSTKPVRTSKVRQLLDTTDIQGEEFAKVIVQKLKDNKQMGLQ | -0.56 ± 0.083
QWIQSKREDIVNQMTEACLNQSLDALLSRDLIMKEDYELVSTKPWRTSKVRQLLDTTDIQGEEFAKVIVQKLKDNKQMGLQ | -0.571 ± 0.1

Variant | abundance fitness
QWIQSKREDIVNQMTEACLNQSLDALLSRDLIMKEDYELVSTKPPRTSKVRQLLDTTDIQGEEFAKVIVQKLKDNKQMGLQ | -0.579 ± 0.092
QWIQSKREDIVNQMTEACLNQSLDALLSRDLIMKEDYELVSTKPIRTSKVRQLLDTTDIQGEEFAKVIVQKLKDNKQMGLQ | -0.87 ± 0.21
QWIQSKREDIVNQMTEACLNQSLDALLSRDLIMKEDYELVSTKPYRTSKVRQLLDTTDIQGEEFAKVIVQKLKDNKQMGLQ | -1.11 ± 0.47
QWIQSKREDIVNQMTEACLNQSLDALLSRDLIMKEDYELVSTKPRRTSKVRQLLDTTDIQGEEFAKVIVQKLKDNKQMGLQ | -0.879 ± 0.07
QWIQSKREDIVNQMTEACLNQSLDALLSRDLIMKEDYELVSTKPQRTSKVRQLLDTTDIQGEEFAKVIVQKLKDNKQMGLQ | -0.652 ± 0.1
QWIQSKREDIVNQMTEACLNQSLDALLSRDLIMKEDYELVSTKPNRTSKVRQLLDTTDIQGEEFAKVIVQKLKDNKQMGLQ | -0.011 ± 0.23
QWIQSKREDIVNQMTEACLNQSLDALLSRDLIMKEDYELVSTKPARTSKVRQLLDTTDIQGEEFAKVIVQKLKDNKQMGLQ | -0.476 ± 0.082
QWIQSKREDIVNQMTEACLNQSLDALLSRDLIMKEDYELVSTDPTRTSKVRQLLDTTDIQGEEFAKVIVQKLKDNKQMGLQ | -1.06 ± 0.37
QWIQSKREDIVNQMTEACLNQSLDALLSRDLIMKEDYELVSTQPTRTSKVRQLLDTTDIQGEEFAKVIVQKLKDNKQMGLQ | -0.098 ± 0.14
QWIQSKREDIVNQMTEACLNQSLDALLSRDLIMKEDYELVSTFPTRTSKVRQLLDTTDIQGEEFAKVIVQKLKDNKQMGLQ | -0.466 ± 0.14
QWIQSKREDIVNQMTEACLNQSLDALLSRDLIMKEDYELVSTGPTRTSKVRQLLDTTDIQGEEFAKVIVQKLKDNKQMGLQ | -0.451 ± 0.049
QWIQSKREDIVNQMTEACLNQSLDALLSRDLIMKEDYELVSTSPTRTSKVRQLLDTTDIQGEEFAKVIVQKLKDNKQMGLQ | -0.46 ± 0.088
QWIQSKREDIVNQMTEACLNQSLDALLSRDLIMKEDYELVSTCPTRTSKVRQLLDTTDIQGEEFAKVIVQKLKDNKQMGLQ | -0.219 ± 0.22
QWIQSKREDIVNQMTEACLNQSLDALLSRDLIMKEDYELVSTRPTRTSKVRQLLDTTDIQGEEFAKVIVQKLKDNKQMGLQ | 0.013 ± 0.061
QWIQSKREDIVNQMTEACLNQSLDALLSRDLIMKEDYELVSTWPTRTSKVRQLLDTTDIQGEEFAKVIVQKLKDNKQMGLQ | -1.04 ± 0.34
QWIQSKREDIVNQMTEACLNQSLDALLSRDLIMKEDYELVSTTPTRTSKVRQLLDTTDIQGEEFAKVIVQKLKDNKQMGLQ | -0.89 ± 0.25
QWIQSKREDIVNQMTEACLNQSLDALLSRDLIMKEDYELVSTYPTRTSKVRQLLDTTDIQGEEFAKVIVQKLKDNKQMGLQ | -1 ± 0.48
QWIQSKREDIVNQMTEACLNQSLDALLSRDLIMKEDYELVSTLPTRTSKVRQLLDTTDIQGEEFAKVIVQKLKDNKQMGLQ | -0.008 ± 0.075
QWIQSKREDIVNQMTEACLNQSLDALLSRDLIMKEDYELVSTPPTRTSKVRQLLDTTDIQGEEFAKVIVQKLKDNKQMGLQ | -0.695 ± 0.25
QWIQSKREDIVNQMTEACLNQSLDALLSRDLIMKEDYELVSTIPTRTSKVRQLLDTTDIQGEEFAKVIVQKLKDNKQMGLQ | -0.535 ± 0.28
QWIQSKREDIVNQMTEACLNQSLDALLSRDLIMKEDYELVSTHPTRTSKVRQLLDTTDIQGEEFAKVIVQKLKDNKQMGLQ | -0.109 ± 0.28
QWIQSKREDIVNQMTEACLNQSLDALLSRDLIMKEDYELVSTVPTRTSKVRQLLDTTDIQGEEFAKVIVQKLKDNKQMGLQ | -0.348 ± 0.11
